Measurements published in patent US7052898B2, “Thermostable isomerase and use hereof, in particular for producing tagatose” (Bioneer A/S, priority 2001, dated 2006).
Where two headings read alike, the source gives them in different places.

Experiments:
[1] = cited from earlier work
[2] = tested on: L-arabinose isomerase from T. mathranii; experiment: Metal ion requirement: reactivation of EDTA-dialysed enzyme; assay type: biochemical, Thermoanaerobacter mathranii; settings: enzyme previously dialysed against 5 mM EDTA, metal salt added
Experimental: (§1) Enzyme sample, 10-50 μl, was mixed with 950 μl of assay reagent and incubated at 65° C. for 60 min.

[3] = tested on: Lactobacillus gayonii L-arabinose isomerase; settings: read-out: Km for L-arabinose; Reference 5: Nakamatu and Yamanaka (1969); cited from earlier work
[4] = tested on: Aerobacter aerogenes L-arabinose isomerase; settings: read-out: Km for L-arabinose; Reference 1: Yamanaka and Wood (1966); cited from earlier work
[5] = tested on: Mycobacterium smegmatis L-arabinose isomerase; settings: read-out: Km for L-arabinose; Reference 6: J. Bacteriol. 133: 413-414 (1978); cited from earlier work
[6] = tested on: Escherichia coli L-arabinose isomerase; settings: read-out: Km for L-arabinose; Reference 3: Patrick and Lee (1968); cited from earlier work
[7] = tested on: Lactobacillus plantarum L-arabinose isomerase; settings: read-out: Km for L-arabinose; Reference 4: Heath et al. (1958); cited from earlier work
[8] = substrate: OC1OC[C@H](O)[C@H](O)[C@H]1O; experiment: purified protein, by the assay type; settings: other: apparent Km; T. mathranii enzyme produced in E. coli; pH 6.9; 65.0 °C
[9] = Substrate specificity: D-fucose colour response relative to L-arabinose; assay type: biochemical; settings: 0.5 M D-fucose, cysteine-carbazol-sulfuric acid method
Experimental: as §1
(§2) The obtained concentrations of the ketoses L-ribulose, D-tagatose or D-fuculose, respectively, were determined by the cysteine-carbazol-sulfuric acid method (Dische, Z. and Borenfreund, E. (1951) J. Biol. Chem. 192: 583-587). Samples were incubated at room temperature for 60 min and the absorbance at 560 nm was measured in a microplate reader. Standard curves showing the colour response of 0-5 mM ketose were made with D-tagatose and D-ribulose, since L-ribulose was not commercially available. (No standard curve was obtained for D-fuculose which was not commercially available.)

[10] = pH dependence, D-galactose assay; assay type: biochemical; settings: D-galactose assays at pH 4, 5, 6, 7, 8 and 9
Experimental: as §1, §2
The buffer used for these assays was a mixture of 25 mM acetic acid, 25 mM 2-[N-morpholino]ethanesulfonic acid (MES), 5 mM MnCl2, and 25 mM tris[hydroxymethyl]-aminomethane (TRIS), which was titrated with HCl or NaOH.

[11] = Substrate specificity: D-galactose activity relative to L-arabinose activity; assay type: biochemical; settings: molar ratio of keto-sugar, substrate 0.5 M, pH 6.9, 65° C.
Experimental: as §1, §2
The ratio was calculated from the cysteine-carbazol-sulfuric acid colour responses and the standard curves generated with ribulose and tagatose, respectively.

[12] = Temperature dependence, D-galactose assay; assay type: biochemical; settings: temperature range of about 60-75° C.
Experimental: as §1, §2

[13] = Substrate specificity: other aldo-hexoses, aldo-pentoses and deoxy-sugar; assay type: biochemical
Experimental: as §1, §2

[14] = Bioconversion of D-galactose to D-tagatose with free enzyme; assay type: biochemical; settings: 65° C.
Experimental: as §2
Control samples without enzyme were treated similarly. Periodically, samples were taken and the concentration of D-tagatose was determined by the cystein-carbazol-sulfuric acid method as described above. The results are shown in Table 2.2A (30% D-galactose) and 2.2B (60% D-galactose).

[15] = end-product inhibition; cited from earlier work
[16] = initial D-galactose 30% (1.67 M), pH 6.9, 0 h
[17] = initial D-galactose 30% (1.67 M), pH 6.9, 24 h
[18] = initial D-galactose 30% (1.67 M), pH 6.9, 48 h
[19] = initial D-galactose 30% (1.67 M), pH 6.9, 72 h
[20] = initial D-galactose 60% (3.33 M), pH 6.9, 0 h
[21] = initial D-galactose 60% (3.33 M), pH 6.9, 24 h
[22] = initial D-galactose 60% (3.33 M), pH 6.9, 48 h
[23] = initial D-galactose 60% (3.33 M), pH 6.9, 72 h

Molecule: Lactobacillus plantarum
- amount of ketose at equilibrium ([1]; 10° C.): 10%
- amount of ketose at equilibrium ([1]; 25° C.): 14%
- amount of ketose at equilibrium ([1]; 53° C.): 16%

Molecule: [Cl][Mn][Cl] [MnCl2]
- restored L-arabinose isomerase activity [2]: 100%

Molecule: OC1OC[C@H](O)[C@H](O)[C@H]1O (stereo partly drawn) [L-arabinose]
- Km [3]: 55 mM
- Km [4]: 33 mM
- Km [5]: ~30 mM
- Km [6]: 60 mM
- Km [7]: 28 mM

Molecule: O=S(=O)([O-])[O-].[Fe+2] [FeSO4]
- restored L-arabinose isomerase activity [2]: 76%

B1: Thermoanaerobacter mathranii DSMZ 11426 L-arabinose isomerase (AraA), wild type, SEQ ID NO:2, produced in E. coli (Thermoanaerobacter mathranii subsp. … (protein)
chain: MQTKKKPQIGFLGIMQELYDDMLPGITERQEKYAREVIEQLQDVADFHFPKAAKNRQDIEHIVKEFNEKDLDGIMIVMLTYGPATNIVNALRNNKLPIMLANIQPVPTVTEDWDMGDLTYNQGVHGAQDTANAILRMGIKCPIITEEWHSEEFKKFVGDWAKAVQTIKALRNMKIAQFGRMHGMYDILGDDAAFTRKIGPQINQEYIGEVYRYMETATEEEINAVIEENRKNFYIDPNLSEESHRYAARLQIGFKKFLINKGYDGFTAHFDVFKGDGRFKQIPMMAASNLMAEGYGYAAEGDAVTASLVAAGHVLIGDAHFTEMYAMDFKRNSILMSHMGEGNWKIARKDRPIKLIDRELGIGKLDNPPTIVFMAQPGPATLVSLVSLEGERYRLVVSKGEILDTEEAKYIEMPYFHFRPSTGVKACLDGWLTNGGTHHECLNLGDNTRRWKILCNLLDIEYVEV
- Km [8]: 80 mM and ˜80 mM

B2: L-arabinose isomerase from T. mathranii: L-arabinose isomerase (araA gene product, 465 amino acid residues) of Thermoanaerobacter mathranii DSMZ 11426 produced in E. coli; used as cell extract (protein)
chain: B1 chain
modifications: Thermoanaerobacter matrahnii, araA sequence
notes: used as cell extract
- colour response with D-fucose as percent of the response with L-arabinose [9]: 46%
- pH of highest activity [10]: 8
- D-galactose activity as percent of the L-arabinose activity [11]: 21%
- share of the maximum activity retained [12]: ≥ 70%
- enzyme activity with D-arabinose ([13]; substrate D-arabinose): No significant enzyme activity
- enzyme activity with D-glucose ([13]; substrate D-glucose): No significant enzyme activity
- enzyme activity with D-mannose ([13]; substrate D-mannose): No significant enzyme activity
- enzyme activity with D-ribose ([13]; substrate D-ribose): No significant enzyme activity
- enzyme activity with D-xylose ([13]; substrate D-xylose): No significant enzyme activity
- enzyme activity with L-fucose ([13]; substrate L-fucose): No significant enzyme activity
- enzyme activity with L-ribose ([13]; substrate L-ribose): No significant enzyme activity
- Conc. of D-tagatose [14, 16]: 0 mM
- Percent bioconversion [14, 16]: 0
- Conc. of D-tagatose [14, 17]: 427 mM
- Percent bioconversion [14, 17]: 25
- Conc. of D-tagatose [14, 18]: 450 mM
- Percent bioconversion [14, 18]: 26
- Conc. of D-tagatose [14, 19]: 422 mM
- Percent bioconversion [14, 19]: 25
- Conc. of D-tagatose [14, 20]: 0 mM
- Percent bioconversion [14, 20]: 0
- Conc. of D-tagatose [14, 21]: 462 mM
- Percent bioconversion [14, 21]: 14
- Conc. of D-tagatose [14, 22]: 542 mM
- Percent bioconversion [14, 22]: 16
- Conc. of D-tagatose [14, 23]: 622 mM
- Percent bioconversion [14, 23]: 19

B3: β-glycosidase from Sulfolobus solfataricus: extremely thermostable β-glycosidase from the thermoacidophilic archaeon Sulfolobus solfataricus, used as lactase (protein, UniProt P22498 1-489, looked up)
Beta-galactosidase: MYSFPNSFRFGWSQAGFQSEMGTPGSEDPNTDWYKWVHDPENMAAGLVSGDLPENGPGYWGNYKTFHDNAQKMGLKIARLNVEWSRIFPNPLPRPQNFDESKQDVTEVEINENELKRLDEYANKDALNHYREIFKDLKSRGLYFILNMYHWPLPLWLHDPIRVRRGDFTGPSGWLSTRTVYEFARFSAYIAWKFDDLVDEYSTMNEPNVVGGLGYVGVKSGFPPGYLSFELSRRAMYNIIQAHARAYDGIKSVSKKPVGIIYANSSFQPLTDKDMEAVEMAENDNRWWFFDAIIRGEITRGNEKIVRDDLKGRLDWIGVNYYTRTVVKRTEKGYVSLGGYGHGCERNSVSLAGLPTSDFGWEFFPEGLYDVLTKYWNRYHLYMYVTENGIADDADYQRPYYLVSHVYQVHRAINSGADVRGYLHWSLADNYEWASGFSMRFGLLKVDYNTKRLYWRPSALVYREIATNGAITDEIEHLNSVPPVKPLRH
- inhibition by galactose [15]: not to be inhibited
- inhibition by glucose [15]: only moderately inhibited
